B1: urate oxidase (UOX), untagged, in vitro synthesized (natural protein, mouse, UniProt P25688 1-303, looked up)
chain: MAHYHDNYGKNDEVEFVRTGYGKDMVKVLHIQRDGKYHSIKEVATSVQLTLRSKKDYLHGDNSDIIPTDTIKNTVHVLAKLRGIRNIETFAMNICEHFLSSFNHVTRAHVYVEEVPWKRFEKNGIKHVHAFIHTPTGTHFCEVEQMRNGPPVIHSGIKDLKVLKTTQSGFEGFLKDQFTTLPEVKDRCFATQVYCKWRYQRRDVDFEAIWGAVRDIVLQKFAGPYDKGEYSPSVQKTLYDIQVLSLSQLPEIEDMEISLPNIHYFNIDMSKMGLINKEEVLLPLDNPYGKITGTVKRKLPSRL
modifications: 35S-methionine labelled
notes: mouse urate oxidase, cDNA amplified with primers from the start codon to the stop codon, in pGEM4; also called mUOX; monomeric UOX; source: in vitro translated (rabbit reticulocyte lysate, TnT T7 QuickCoupled kit), not purified

How the values were obtained:
[1] = biological target: acyl-CoA oxidase 1 (ACOX1), untagged, in vitro synthesized (mouse) (UniProt Q9R0H0); assay: sucrose gradient centrifugation; 35S-labelled protein synthesized (30 min ACOX1, 45 min UOX) and chased for 4 h with cycloheximide without PEX5; 5-30% sucrose in buffer B, 39 000 r.p.m., 29 h, 4°C
[2] = biological target: the molecule itself; assay: as above

Molecule | stoichiometry N [1] | stoichiometry N [2]
acyl-CoA oxidase 1 (ACOX1), untagged, in vitro synthesized (from UniProt Q9R0H0 1-661) (natural protein) | 2 | –
B1 | – | 4
